Data from publication PMC2965674, “Functional Roles of the N- and C-Terminal Regions of the Human Mitochondrial Single-Stranded DNA-Binding Protein” (PLoS ONE, 2010).
One block for each molecule: values may come before it.

Experiments:
[1] = molecular target: HsmtSSBΔN, deletion variant lacking the first 9 residues in the N-terminus of mature HsmtSSB (human); test: SEC + other: glycerol gradient velocity sedimentation; 12-30% glycerol gradients, 264,000 x g, 63 hr, 4°C, 35 mM Tris-HCl pH 7.5, 100 mM NaCl, 2 mM EDTA, 5 mM DTT; Superdex 75 gel filtration in the same buffer with 8% glycerol, 4°C; native mass calculated from the S value and the Stokes radius
[2] = molecular target: T1, HsmtSSBΔC (Homo sapiens, UniProt Q04837 =M+17-141, internal_change); test: EMSA; 50 mM NaCl, 4 mM Mg2+; apparent Kd, protein as tetramer; 20 mM Tris-HCl pH 7.5, 1 mM DTT, 4 mM MgCl2, 50 mM NaCl, 36 fmol 48-mer in 20 µL, 20°C 10 min; 6% native PAGE; settings: protein: recombinant; tags: none (untagged); chain copies: 4; label: 5'-32P; single strand
T1 sequence: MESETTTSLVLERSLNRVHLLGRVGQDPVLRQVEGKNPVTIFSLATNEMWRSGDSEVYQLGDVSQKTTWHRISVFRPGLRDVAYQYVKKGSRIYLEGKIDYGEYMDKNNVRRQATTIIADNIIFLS

[3] = molecular target: T2, HsmtSSBΔN (Homo sapiens, UniProt Q04837 =M+26-148, internal_change); test: as above; settings: protein: recombinant; tags: none (untagged); chain copies: 4; label: 5'-32P; single strand
T2 sequence: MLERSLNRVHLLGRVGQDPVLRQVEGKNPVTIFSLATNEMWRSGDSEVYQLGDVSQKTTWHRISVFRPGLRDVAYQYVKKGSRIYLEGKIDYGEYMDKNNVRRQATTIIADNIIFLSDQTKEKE

[4] = molecular target: T3, HsmtSSBwt (mature human mitochondrial SSB) (Homo sapiens, UniProt Q04837 17-148); test: as above; settings: protein: recombinant; tags: none (untagged); chain copies: 4; label: 5'-32P; single strand
T3 sequence: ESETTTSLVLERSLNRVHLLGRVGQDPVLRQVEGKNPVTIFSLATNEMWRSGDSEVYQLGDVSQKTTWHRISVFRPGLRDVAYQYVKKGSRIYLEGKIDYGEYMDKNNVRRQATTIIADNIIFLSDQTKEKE

[5] = molecular target: T4, HsmtSSBΔNΔC (Homo sapiens, UniProt Q04837 =M+26-141, internal_change); test: as above; settings: protein: recombinant; tags: none (untagged); chain copies: 4; label: 5'-32P; single strand
T4 sequence: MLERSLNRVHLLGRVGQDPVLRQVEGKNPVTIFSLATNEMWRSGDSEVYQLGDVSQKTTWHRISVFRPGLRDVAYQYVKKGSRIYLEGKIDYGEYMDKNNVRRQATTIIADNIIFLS

[6] = molecular target: the molecule itself; test: SEC + other: glycerol gradient velocity sedimentation; 12-30% glycerol gradients, 264,000 x g, 63 hr, 4°C, 35 mM Tris-HCl pH 7.5, 100 mM NaCl, 2 mM EDTA, 5 mM DTT; Superdex 75 gel filtration in the same buffer with 8% glycerol, 4°C; native mass calculated from the S value and the Stokes radius

stoichiometry N [1]: 4
Molecule: HsmtSSBΔN, deletion variant lacking the first 9 residues in the N-terminus of mature HsmtSSB (domain or fragment)

Molecule: GGACTATTTATTAAATATATTTAAGAACTAATTCCAGCTGAGCGCCGG (ssDNA) [48-mer ssDNA oligonucleotide]
Kd [2]: ~5 nM | Kd [3]: ~5 nM | Kd [4]: ~5 nM | Kd [5]: ~5 nM

B1: HsmtSSBΔNΔC, variant of HsmtSSB that lacks both termini (first 9 and last 7 residues of the mature protein) (domain or fragment, human, UniProt Q04837 26-141, looked up)
chain: LERSLNRVHLLGRVGQDPVLRQVEGKNPVTIFSLATNEMWRSGDSEVYQLGDVSQKTTWHRISVFRPGLRDVAYQYVKKGSRIYLEGKIDYGEYMDKNNVRRQATTIIADNIIFLS
notes: human mtSSB, mature protein lacking its first 9 and its last 7 residues; numbers count on: the mature protein; Untagged; Made with the forward primer of ΔN (new start methionine before L-E-R-S) and the reverse primer of ΔC (stop after ...F-L-S); source: E. coli BL21(DE3), pET-11a, untagged, purified (Blue Sepharose, phosphocellulose)
stoichiometry N [6]: 4

B2: HsmtSSBΔC, deletion variant lacking the last 7 residues in the C-terminus of HsmtSSB (domain or fragment, human, UniProt Q04837 17-141, looked up)
chain: ESETTTSLVLERSLNRVHLLGRVGQDPVLRQVEGKNPVTIFSLATNEMWRSGDSEVYQLGDVSQKTTWHRISVFRPGLRDVAYQYVKKGSRIYLEGKIDYGEYMDKNNVRRQATTIIADNIIFLS
notes: human mtSSB, mature protein lacking its last 7 residues; numbers count on: the mature protein; Untagged; The reverse primer puts a new stop codon after codons that read ...D-N-I-I-F-L-S. A start methionine precedes the first mature residue
stoichiometry N [6]: 4

B3: human mitochondrial single-stranded DNA-binding protein, mature wild type (HsmtSSBwt) (natural protein, UniProt Q04837 17-148, looked up)
chain: T3 sequence
notes: numbers count on: the mature protein; Untagged; The forward primer (CATATG GAGTCC...) puts a start methionine before the first mature residue; also called human mtSSB; source: E. coli BL21(DE3), pET-11a, untagged, purified (Blue Sepharose, phosphocellulose)
stoichiometry N [6]: 4
